B1: Porcine Kobuvirus GS2 (nucleic acid, listed as Kobuvirus sp.)
DNA: TTTGAAAAGGGGGTGGGGGGGCCTCGGCCCCCTCACCCTCTTTTCCGGTGGCCATTCGCCCGGGCCACCGTTACTCCACTCCACTCCTTCGGGACTGGTTTGGAGGAACACAACAGGGCTTCCCATCCCTGTTTACCCTTTATTCCATCATCCTTTCCCCAAGTTTACCCTATCCACACCCCACTGACTGACTCCTTTGGATTTTGACCTCAGAATGCCTATTTGACCTCCCACTCGCCTCTCCCTTTTCGGATTGCCGGTGGTGCCTGGCGGAAAAAGCACAAGTGTGTTGCAGGCTACCAAACTCCTACCCGACAAAGGTGCGTGTCCGCGTGCTGAGTAATGGGATAGGAGATGCCTACAACAGGCTCGCCCATGAGTAGAGCATGGACTGCGGTGCATGTGACTTCGGTCACCACGGGCATAGCATTGCTCACCCGTGAATCAAGTCATCGAGATTTCTCTGACCTCTGAAGTGCACTGTGGTTGCGTGGCTGGGAATCCACGCTTGACCATGTACTGCTTGATAGAGTCGCGGCTGGCCGACTCATGGGTTAAAGTCAGTTGACAAGACAC
modifications: lipid formulation
B2: A73-675 (nucleic acid)
DNA: TTACTCCATTCAGCTTCTTCGGAACCTGTTCGGAGGAATTAAACGGGCACCCATACTCCCCCCACCCCCCTTTTGTAACTAAGTATGTGTGCTCGTGATCTTGACTCCCACGGAACGGACCGATCCGTTGGTGAACAAACAGCTAGGTCCACATCCTCCCTTCCCCTGGGAGGGCCCCCGCCCTCCCACATCCTCCCCCCAGCCTGACGTATCACAGGCTGTGTGAAGCCCCCGCGAAAGCTGCTCACGTGGCAATTGTGGGTCCCCCCTTCATCAAGACACCAGGTCTTTCCTCCTTAAGGCTAGCCCCGGCGTGTGAATTCACGTTGGGCAACTAGTGGTGTCACTGTGCGCTCCCAATCTCGGCCGCGGAGTGCTGTTCCCCAAGCCAAACCCCTGGCCCTTCACTATGTGCCTGGCAAGCATATCTGAGAAGGTGTTCCGCTGTGGCTGCCAACCTGGTGACAGGTGCCCCAGTGTGCGTAACCTTCTTCCGTCTCCGGACGGTAGTGATTGGTTAAGATTTGGTGTAAGGTTCATGTGCCAACGCCCTGTGCGGGATGAAACCTCTACTGCCCTAGGAATGCCAGGCAGGTACCCCACCTCCGGGTGGGATCTGAGCCTGGGCTAATTGTCTACGGGTAGTTTCATTTCCAATCCTTTTATGTCGGAGTC
modifications: source: /note="Description of Unknown: A73-675 sequence"
B3: Symapivirus A (nucleic acid)
DNA: TTGGGAAATCCCCAATGCTTCTTTCAACACCGCCTGACTATGCGGTGGCGCTTCGGCTCAAACAACTAGTCACTTCCCCCTCTTAACTACTACCCAAGACTTCTAACTACCCTTACCTACTTATTTGTCTAAATTTCAAACTTTTATTCTCACGCGTCTTATAAACATCTTTTCTATTTGTTATGGTATGTTTTGTGATTTGTGTGGTGTATTTCATTTAATGGGATCTAGTGGACCGTGCCCCGGTTGGGTATCCGCTCCCTTTAAATGTTTGCAAGCACTCTTGACATTATAACCTATCATTTAGTTTACTTGTTTGTATGATCGTATTTCTGAATCGTAACATTTATGCAATTCTTTCTCGCCGAGACTTGTCTAGGAGATAAAGTTCCTGCATATTTAGTGTTACGGTTGTATAATGGAGACTTAGATAGCTTCACACTGAGGACGCTTTTTCGCTATCCTTTTGACCTGATTCAGGCCAGTGTGGAGTTAATGATTGTATGGATGGGCCCTACAATTTGTCTAAGACTTGGTGATAGCCTCGCGGCCGCTCGCCATTTATACAACTGAATAGCGGTTGAAACTCTCT
modifications: Symapivirus A
B4: Human pegivirus isolate JD2B1I (nucleic acid, listed as Pegivirus sp.)
DNA: TCAGGGTTGGTAGGTCGTAAATCCCGGTCACCTTGGTAGCCACTATAGGTGGGTCTTAAGAGAAGGTTAAGATTCCTCTTGTGCCTGCGGCGAGACCGCGCACGGTCCACAGGTGTTGGCCCTACCGGTGGGAATAAGGGCCCGACGTCAGGCTCGTCGTTAAACCGAGCCCGTCACCCACCTGGGCAAACGACGCCCACGTACGGTCCACGTCGCCCTTCA
B5: Pegivirus I (nucleic acid)
DNA: AGAATGGTCTAAGTGGTTGCCACCGTGGTCCGAAGGGGAGGAGGACCTACGCTGCCAGGGTTGGCAGGTCGTAAATCCCGGGTGTAGGAGATCCCTCCTTGTTAGGACTGCTGGTAGCTGGGGGGTCGGTGACCCCCTGGGCAACCGCCAAACCCGGACGACCGGGTGGCGGCTCCATGTTGGCACGGTCCACAGGTGTGAACCCTACCGGTGTGAATAAGGGTTGGTGGTTGCGGTCCACCTTAAACGTAGTATGCATTGGGCTTGGTAAAACACCGCTCGTAGTACGGAACGCCGCCTTTAAAGACACAGTAGGCGTAGCCGGCGGGTTGACAATCCATACGGGGGGTGGGGTGTGGTCATGGATCTGTCCACACCACCTTCATGCGGCCCTCTAAGCAAGCCATACCGGGGGGAGGCGCGCGGCACCGCACTGCCGGGCAAGGGGAAGAACCTTCGGGTGACCCCCCCCCAACCACCGTCCGATCAATGCTAATGTTGCGTTTAGGCGTGACACCGGCACA
modifications: lipid formulation; Pegivirus I
B6: Aichivirus Rt386 (nucleic acid, listed as Aichivirus sp.)
DNA: ACTCCATTCAGCTTCTTCGGAACCTGTTCGGAGGAATTAAACGGGCACCCACTTTCCTGTCCTCTCCCCCTTTCTGCAACTCAAGTGTGTGCTCGTAATCCTGACTCCCACGGGTTGACCGCCCCGTTGGTGAACAAACAGCTAGGTCATTCCCTCCCTACCCCTGGGCGCCATTTCAGTGGCGTTCATATCCTCCCCCCAGCCTGACGTGTCACAGGCTGTGCAAAGTCCCCGCGAAAGCTGCTCACGTGGCAATTGTGGGTCCCCCCTTTGTGAAGGAACCGAGTCTTTCTCCCTTAAGGCTAGACCCCTGTGTGAACTCACAGGTGGCAACTAGTGGTTCCACTGCATGCTCCCGACCTCGGCCGCGGAGTGCTGTTCCCCAAGTCGTGACACTGACCTCCACTTATGTGCCTGGCAAGCATATCTGAGAAGATGTTCCGCTGTGGCTGCCAAACCTGGTAACAGGTGCCCCAGTGCGTGTAGTCTTCTTCCGTCTCCGGACGGTAAGTGTGTGGTAAAGATGCGGCGTAAGGTTCAAGTGCCAACGCCCTGGAAGGGATGACCCTTCTACTGCCCTAGGAATGCCGCGCAGGTACCCCAGGTTCGCCTGGGATCTGAGCGCGGGCTAATTGTCTACGGGTAGTTTCATTTCCCTCTCTTTTCACTGGCATC
B7: Simian pegivirus (nucleic acid, listed as Pegivirus sp.)
DNA: GGGGAATCTCACCCCCCGTCCGGTTCCGGAAGAATCGGAAACCGACACCCTGACCAATCATTCTTGATCATAGAGTGGATGTTAGTGAAAGCCAGACGAAAGCCGGCGGATGGGTGGTGACAGGGTTGGTAGGTCGTAAATCCCGGCCACCCTGGTACCCGGTATAAGTTGGGCGGAAGCTGACTGAAGCTCCGTGCTCTTTTCTGTGCGTTCTTGGTGCACGGTCCACAGGTGACGCCTATACCGGTGTGAATAATAGGCCGACTCGAGCGGAGTCGTTAAACTGAGAACCTCCATACGGATGGCAACTTGGCTTGCGTACGGGGACGCCGCTAAAGTCACAGTGGGTTAAGTCCGGCGGGTTGACAACCCCAGCAAGGCGAGGGGGTCCTATTGTTGGACTCTGCCAGTTCCCGGTGGAGGTAGGCATGGGGTGGCCCAGCTCCGCGGCGCGCTACAGCCGGGGTAGCCCAAAATCCGAAAGGTGAGGGCGGGCCACATGTCCGAAATTTAGTCAAGC
modifications: lipid formulation
B8: Tropivirus A (nucleic acid)
DNA: TGTCGCATGTTGCCAACATCAAAATTCTGGGAGAGTCGCGAACTCCTTAACACTGCCTTGCCTCGACGGAGCCGTTGTTATAGTGTCGACGGGATACAAACATTAAACTAAACCCACTTGCCTCGACGGAACCCCTTACCTTTTATTTTATTTTATAGTATGAAAGTGAATCTTGTATGAATGTTCATAGAAAACTGCAAATGAGTACCACGTCTAACATGAGAGAATGATACTGGAGAAATCCAAGTTTAGAAGTCACTACGAATCCCAGCGGAAACAAGGGAATTCTGAGCTTCTAATAGGCGTTTAAGACTATTTGCAAAATTCTGGTGCGTAAGTGATATTTTCATTGCGTAGAACGCTGGTAACCACTCCGGCTAGTATAAGCATTGTTAGTCACTTATTATGAAACTCCACACTATCCTTTCTGGAGAAGCACACAAACTTACATGGTAAAGCTAGACCATTATCTTAAGCGGTGAGTACACTGCAACCTTGTAACAATGCTTGTATGACTACTTTTTGTATATCTTGAGCAATATTGTTGAGGTGGACATGTCCAAAGGTAATGTTGTTGGGAATGGAGGGGTCCATTTTCCCGTGCACGTAGTGTACTAGTATTGGGTGATAGCCTTGCGGCGGATCAACCATGTATTTTAATCCGTTGACTTTCAC
modifications: Tropivirus A
B9: 18-675 (nucleic acid)
DNA: CCCACAGCAAGAATGCCATCATCTGTCCTCACCCCCAATTTTCCCTTTTCTTCCCCTGCAACCATTACGCTTACTCGCATGTGCATTGAGTGGTGCATGTGTTGAACAAACAGCTACACTCACATGGGGGCGGGTTTTCCCGCCCTACGGCCTCTCGCGAGGCCCACCCCTTCCCTCCCCTTATAACTACAGTGCTTTGGTAGGTAAGCATCCTGATCCCCCGCGGAAGCTGCTCACGTGGCAACTGTGGGGACCCAGACAGGTTATCAAAGGCACCCGGTCTTTCCGCCTTCAGGAGTATCCCTACTAGTGAATTCTAGCGGGGCTCTGCTTGGTGCCAACCTCCCCCAAATGCGCGCTGCGGGAGTGCTCTTCCCCAACTCACCCTAGTATCCTCTCATGTGTGTGCTTGGTCAGCATATCTGAGACGATGTTCCGCTGTCCCAGACCAGTCCAGTAATGGACGGGCCAGTGCGTGTAGTCGTCTTCCGGCTTGTCCGGGGCATGTTTGGTGAACCGGTGGGGTAAGGTTGGTGTGCCCAACGCCCGTACTTTGGTGACACCTCAAGACCACCCAGGAATGCCAGGGAGGTACCCCACCTCACGGTGGGATCTGACCCTGGGCTAATTGTCTACGGTGGTTCTTCTTGCTTCCACTTCTTTCTTCTGTTCACG
modifications: source: /note="Description of Unknown: 18-675 sequence"

Test system: HEK293 cells
Type: cell-based, human
Conditions: circular RNA encoding Gluc with the listed IRES (UTR truncated to 675 nt) transfected into HEK293 cells; supernatant after 24 hours

Row | Molecule | Expression (luminescence from secreted Gluc protein)
1 | B1 | 44200000
2 | B2 | 1.30E+08
3 | B3 | 1.27E+05
4 | B4 | 6.85E+05
5 | B5 | 8.02E+04
6 | B6 | 5.71E+07
7 | B7 | 8.56E+04
8 | B8 | 9.52E+04
9 | B9 | 6.04E+07

— patent publication US20240245805A1 (Orna Therapeutics, Inc., priority 2020, published 2024)
